Assay results taken from the nanobody polyreactivity screen of Harvey et al. (2022).

Test: yeast display, Sf9 membrane polyspecificity reagent, FACS + sequencing; frameworks hold sequencing errors
Procedure, shortened: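 Using colony PCR, genes from sorted yeast display clones were amplified, then sequenced on MiSeq at 2 × 250 and filtered by CDR length. The clones had been stained with 10% biotinylated, detergent-solubilized Sf9 membrane reagent for 1 hour at 4 °C and sorted by FACS into low and high (top ~1%) gates on anti-HA and streptavidin fluorescence. Polyreactivity labels come from the gate of origin.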

Sequence	polyreactivity (PSR sort gate)
QVQLVESGGGLVQAGGSLRLSCAASGFTFRVNAMGWYRQAPGKERELVAAISSGGGITYYADSVKGRYTISRDNAKNTVYLQMNSLKPEDTAVYYCAARENRYLERDYWGQGTQVNVSS	low polyreactivity
QVQLVESGGGLVQAGGSLRLSCAASGFTFRVNAMGWYRQAPGKERELVAAISSGGSTNYADSVKGRFTISRDNAKNTVYLQMNSLKPEDTAVYYCAKRFKYIYYWGQGTQVTVSS	high polyreactivity
QVQLVESGGGLVQAGGSLRLSCAASGFTFRVNAMGWYRQAPGKERELVAAISWTGGSTYYADSVKGRFTISRDNAKNTVYLQMNSLKPEDTAVYYCATRFGGRYNEFGFWGQGTQVTVSS	low polyreactivity
QVQLVESGGGLVQAGGSLRLSCAASGFTFRVYAMGWNRQAPGKEREFVASITWGGGRPYYADSVKGRFTISRDNAKNTVYLQMNSLKPEDTAVYYCAAYGRLDSYVSYYYWGQGTQVTVSS	high polyreactivity
QVQLVESGGGLVQAGGSLRLSCAASGFTFRVYAMGWYRQPPGKERELVAVISGTGGRTYYADSVKGRFTISRDNAKNTVYLQMNSLKPEDTAVYYCAAVGLTPKAIWTSDYWGQGTQVTVSS	high polyreactivity
QVQLVESGGGLVQAGGSLRLSCAASGFTFRWYAMGWYRQAPGKERELVAAITSDDNTYYADSVKGRFTISRDNAKNTVYLQMNSLKPEDTAVYYCAAEYADYWTYNMGYWGQGTQVTVSS	low polyreactivity
QVQLVESGGGLVQAGGSLRLSCAASGFTFRWYAMGWYRQAPGKERELVAAITSRGGTTYYADSVKGRFTISRDNAKNTVYLQMNSLKPEDTAVYYCAALNSGYIGMDYWGQGTQVTVSS	high polyreactivity
QVQLVESGGGLVQAGGSLRLSCAASGFTFRYYAMGWSRQDPGKERELVAAITNVGSTNYADSVKGRFTISRDNAKYTVYLLMNSLKPEDTAVYYCNAPRTPWRRSYDYWGQGTQVTVSW	high polyreactivity
QVQLVESGGGLVQAGGSLRLSCAASGFTFRYYAMGWYRQAPGKEREFVAAITYNGVSTYYADSVKGRFTISRDNAKNTVYLQMNSLKPEDTAVYYCAADVLLSRSNTPQRPSRLYYWGQGTQVTVSS	high polyreactivity
QVQLVESGGGLVQAGGSLRLSCAASGFTFRYYAMGWYRQAPGKERELLAAISWSGGSTYYADSVKGRFTISRDNAKNTVYLQMNSLNPEDTAVYYCAADSVFGGRGRYQASRYYYWGQGPQVTVSS	high polyreactivity
QVQLVESGGGLVQAGGSLRLSCAASGFTFRYYAMGWYRQAPGKERELVAAISRSGGSTYYADSVKGRFTISRDNAKNTVYLQMNSLKPEDTAVYYCAARSHGWTPHGYDYWGQGTQVTVSS	high polyreactivity
QVQLVESGGGLVQAGGSLRLSCAASGFTFRYYAMGWYRQAPGKERELVAAISYRGGRTYYADSVKGRFTISRDNAKNTVYLQMNSLKPEDTAVYYCAVDYTLADVIYDYWGQGTQVTVSS	high polyreactivity
QVQLVESGGGLVQAGGSLRLSCAASGFTFRYYAMGWYRQAPGKERELVAAITGSGGRTYYADSVKGRFTISRDNAKNTVYLQMNSLKPEDTAVYYCARDVDPRGRYYWGQGTQVTVSS	high polyreactivity
QVQLVESGGGLVQAGGSLRLSCAASGFTFRYYAMGWYRQAPGKERELVAAITSGDSTYYADSVKGRFTISRDNAKNTVYLQMNSLKPEDTAVYYCNKDRRPTADFGYWGQGTQVTVSS	high polyreactivity
QVQLVESGGGLVQAGGSLRLSCAASGFTFRYYAMGWYRQAPGKERELVADITWSGTRTYYADSVKGRFTISRDNAKNTVYLQMNSLKPEDTAVYYCAKVTWVRGSYYRNKSSIYDYWGQGTQVTVSS	high polyreactivity
QVQLVESGGGLVQAGGSLRLSCAASGFTFRYYAMGWYRQAPGKERELVASINWSGGSTYYADSVKGRFTISRDNAKNTVYLQMNSLKPEDTAVYYCAADSIWGHYFARFDYWGQGTQVTVSS	high polyreactivity

Sequence	polyreactivity (PSR sort gate)
QVQLVESGGGLVQAGGSLRLSCAASGFTFRYYAMGWYRQAPGKERELVASTYYADYVKGRFTISRDNAKNTVYLQMNSLKPEDTAVYYCNVDGTSSSPFVQKHKEMDYWGQGTQVTVSS	low polyreactivity
QVQLVESGGGLVQAGGSLRLSCAASGFTFRYYAMGWYRQAPGKERELVATIRTSGGSTYYADSVKGRFTISRDNAKNTVYLQMNSLKPEDTAVYYCAVRGRNWQHTRFNYWGQGTQVTVSS	high polyreactivity
QVQLVESGGGLVQAGGSLRLSCAASGFTFRYYAMGWYRQAPGKEWELVARITWNGGRTYYADSVKGRFTISRDNAKNTLYLQMNSLKPEDTAVYYCAARGFYRSYYWGQGTQVTVSS	high polyreactivity
QVQLVESGGGLVQAGGSLRLSCAASGFTFRYYAMGWYRQAPGTERELVAGITRSGGSTYYADSVKGRFTISRDNAKNTVYLQMNSLKPEDTAVYYCAAYRSIYGTRAPREFESWGQGTQVTVSS	high polyreactivity
QVQLVESGGGLVQAGGSLRLSCAASGFTFRYYAMVWYRQAPGKERELVAAISYSGGSTYYADSVKGRFTISRDNAKNTVYLQMNCLKPEDTAVYYCAAYYPYSREMGYWGQGTQVTVSS	high polyreactivity
QVQLVESGGGLVQAGGSLRLSCAASGFTFRYYVMGWYRQAPGKERELVAAITSGGRTHYADSVKGRFTISRDNAKNTDYLQMNSLKPEDTAVYYCAVRTQFAGLHYYYGYWGQGTQVTVSS	high polyreactivity
QVQLVESGGGLVQAGGSLRLSCAASGFTFRYYVMGWYRQAPGKERELVAAITSGGSTNYADSVKGRFTISRDNAKNTVYLQMNSLKPEDTAVYYCYAAYRSYGRFDYWGQGTQVTVSS	low polyreactivity
QVQLVESGGGLVQAGGSLRLSCAASGFTFRYYVMGWYRQSPGKERELVAAISWSGGSTYYADSVKGRFTISRDNAKNTVYLQMNSLKPEDTAVYYCNAASLSKSDYWGQGTQVTVSS	high polyreactivity
QVQLVESGGGLVQAGGSLRLSCAASGFTFRYYVMGWYRQSPGKERELVASISRAGSTTNYADSVKGRFTISRDNAKNTVYLQMNSLNPEDTAVYYCNVVITPGYSYDISRGEGYWGQGTQVTVSS	high polyreactivity
QVQLVESGGGLVQAGGSLRLSCAASGFTFSAYTMGWYRQAPGKERELVADISSRGGSTYYADSVKGRFTISRDNAKNTVYLQMNSLKPEDTAVYYCAAVWYWTQDYDYWGQGTQVTVSS	low polyreactivity
QVQLVESGGGLVQAGGSLRLSCAASGFTFSENAMGWYRQAPGRERELVADIPRSGGNTHYADSEKGRFTISRDNAKNTVYLQMNSLKPEDTAVYYCAARVQWLGYGYYYWGQGTQVTVSS	high polyreactivity
QVQLVESGGGLVQAGGSLRLSCAASGFTFSFNAMGWYRQAPGKERELVAAITTADSTYYADSVKGRFTISRDNAKNTVYLQMNSLKPEDTAVYYCAADSYYYGYQGQTQYGWVWYDYWGQGTQVTVSS	low polyreactivity
QVQLVESGGGLVQAGGSLRLSCAASGFTFSFYAMGWYRQAPGKERELVATISSGGSTTYADSVKGRFTISRDNAKNTVYLQMNSLKPEDTAVYYCAARGKYYRSQDPSGPRRYDYWGQGTQVTVSS	high polyreactivity
QVQLVESGGGLVQAGGSLRLSCAASGFTFSGYAMGWYRQAPGKERELVAAITRRGGSTYYADSVKGRFTISRDNAKNTVYLQMNSLKPEDTAVYYCAADSGYPWELDYWGQGTQVTVSS	low polyreactivity
QVQLVESGGGLVQAGGSLRLSCAASGFTFSHYAKGWYRQAPGKDRELVAAITASGGNTYYADSVKGRFTISRDNAKNTVYLQMNSLKPEDTAVYYCNAVSLKFTRKYEYWGQGTQVTVSS	high polyreactivity
